We go through two substances from IntAct's records for PubMed 20798051.

This test concerns the target fgfr4_human FGFR4 (UniProt P22455).
Sequence of UniProt P22455 (P22455 whole entry, looked up): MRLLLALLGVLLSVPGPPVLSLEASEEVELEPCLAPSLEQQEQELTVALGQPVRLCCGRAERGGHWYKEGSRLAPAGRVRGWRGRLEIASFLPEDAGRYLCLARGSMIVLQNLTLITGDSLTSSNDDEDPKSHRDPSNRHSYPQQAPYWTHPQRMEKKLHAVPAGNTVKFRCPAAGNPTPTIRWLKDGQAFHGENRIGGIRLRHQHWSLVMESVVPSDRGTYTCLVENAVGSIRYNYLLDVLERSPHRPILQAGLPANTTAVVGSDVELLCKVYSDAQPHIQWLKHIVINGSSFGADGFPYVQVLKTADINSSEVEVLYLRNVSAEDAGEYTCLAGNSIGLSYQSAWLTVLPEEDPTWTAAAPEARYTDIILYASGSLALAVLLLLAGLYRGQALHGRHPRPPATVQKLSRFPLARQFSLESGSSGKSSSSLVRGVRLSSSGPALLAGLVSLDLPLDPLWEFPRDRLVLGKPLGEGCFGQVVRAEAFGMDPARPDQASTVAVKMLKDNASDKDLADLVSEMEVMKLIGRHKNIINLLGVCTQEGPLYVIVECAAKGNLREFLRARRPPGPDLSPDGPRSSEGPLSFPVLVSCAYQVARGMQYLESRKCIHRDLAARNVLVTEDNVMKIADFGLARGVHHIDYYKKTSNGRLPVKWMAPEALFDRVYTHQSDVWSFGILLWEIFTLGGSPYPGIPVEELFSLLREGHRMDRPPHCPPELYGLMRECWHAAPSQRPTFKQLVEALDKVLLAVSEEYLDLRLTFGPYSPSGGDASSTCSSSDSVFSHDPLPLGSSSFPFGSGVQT

As to “Matrix metalloproteinase-14 (Homo sapiens) (from UniProt P50281) E240A”, the “effect of a mutation on the interaction” value is “decreasing interaction”.
“Matrix metalloproteinase-14 (Homo sapiens) (from UniProt P50281) Y573F”: the “effect of a mutation on the interaction” value was “decreasing interaction”.
